In paper PMC9482650, “Quantitative fragmentomics allow affinity mapping of interactomes” (Nature Communications, 2022):

T1: APBA1_2, Q02410
T1 sequence (Q02410 742-832, limits assumed, looked up): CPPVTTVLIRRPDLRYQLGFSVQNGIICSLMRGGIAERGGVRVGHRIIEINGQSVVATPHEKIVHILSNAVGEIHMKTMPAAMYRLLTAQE

T2: CARD11, Q9BXL7
T2 sequence (Q9BXL7 662-765, limits assumed, looked up): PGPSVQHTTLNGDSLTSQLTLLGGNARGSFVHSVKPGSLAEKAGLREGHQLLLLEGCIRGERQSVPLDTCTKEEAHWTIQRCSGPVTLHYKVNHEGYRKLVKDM

T3: LRRC7, Q96NW7
T3 sequence (Q96NW7 1440-1537, limits assumed, looked up): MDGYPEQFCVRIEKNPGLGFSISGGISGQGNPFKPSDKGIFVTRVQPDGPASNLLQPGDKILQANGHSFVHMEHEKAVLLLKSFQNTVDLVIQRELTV

T4: MPP6, Q9NZW5
T4 sequence (Q9NZW5 125-219, limits assumed, looked up): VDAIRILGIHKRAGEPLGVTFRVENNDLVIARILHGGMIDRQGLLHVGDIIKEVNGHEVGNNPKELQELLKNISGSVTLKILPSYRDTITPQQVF

T5: NHERF3_1, Q5T2W1
T5 sequence (Q5T2W1 4-100, limits assumed, looked up): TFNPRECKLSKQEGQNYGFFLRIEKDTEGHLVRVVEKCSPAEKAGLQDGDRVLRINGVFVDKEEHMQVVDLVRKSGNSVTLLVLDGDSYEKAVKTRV

T6: NHERF3_3, Q5T2W1
T6 sequence (Q5T2W1 238-333, limits assumed, looked up): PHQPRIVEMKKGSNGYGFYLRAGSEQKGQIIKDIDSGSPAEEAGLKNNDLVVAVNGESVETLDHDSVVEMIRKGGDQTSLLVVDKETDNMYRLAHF

T7: PARD3B_1, Q8TEW8
T7 sequence (Q8TEW8 196-299, limits assumed, looked up): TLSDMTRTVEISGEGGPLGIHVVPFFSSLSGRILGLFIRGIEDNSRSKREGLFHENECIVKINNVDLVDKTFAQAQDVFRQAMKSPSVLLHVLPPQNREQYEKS

T8: SNTG1, Q9NSN8
T8 sequence (Q9NSN8 52-150, limits assumed, looked up): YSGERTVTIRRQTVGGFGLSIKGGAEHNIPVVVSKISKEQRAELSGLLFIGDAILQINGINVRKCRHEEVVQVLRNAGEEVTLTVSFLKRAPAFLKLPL

T9: SNTG2, Q9NY99
T9 sequence (Q9NY99 68-166, limits assumed, looked up): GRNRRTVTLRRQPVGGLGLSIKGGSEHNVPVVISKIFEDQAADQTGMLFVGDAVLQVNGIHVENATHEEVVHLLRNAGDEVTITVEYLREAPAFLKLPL


What follows are binders tested against AHNAK1, Q09666 (assay: holdup assay). Settings: plain residues with an end cap or a label only (N-terminal biotin on a linker: ado-ado).
Set-up: key: below the threshold = too weak to quantify, mostly under pKd 3.1 to 4

AHNAK1, Q09666, sequence (Q09666 4-100): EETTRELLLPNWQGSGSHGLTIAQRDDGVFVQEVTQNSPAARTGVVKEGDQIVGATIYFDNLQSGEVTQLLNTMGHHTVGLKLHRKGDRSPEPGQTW

| pKd | Binder |
| --- | --- |
| below the threshold | SRPHTNETSL [MCC, P23508] |

The binders below were run against T1, APBA1_2, Q02410 (assay: holdup assay). Settings: plain residues with an end cap or a label only (N-terminal biotin on a linker: ado-ado).
Set-up: key: below the threshold = too weak to quantify, mostly under pKd 3.1 to 4

| pKd | Binder |
| --- | --- |
| 3.59 | SRPHTNETSL [MCC, P23508] |

What follows are binders tested against T2, CARD11, Q9BXL7 (assay: holdup assay). Settings: plain residues with an end cap or a label only (N-terminal biotin on a linker: ado-ado).
Set-up: key: below the threshold = too weak to quantify, mostly under pKd 3.1 to 4

| pKd | Binder |
| --- | --- |
| below the threshold | SRPHTNETSL [MCC, P23508] |

What follows are binders tested against DLG1_3, Q12959 (assay: holdup assay). Settings: plain residues with an end cap or a label only (N-terminal biotin on a linker: ado-ado).
Set-up: key: below the threshold = too weak to quantify, mostly under pKd 3.1 to 4

DLG1_3, Q12959, sequence (Q12959 457-571): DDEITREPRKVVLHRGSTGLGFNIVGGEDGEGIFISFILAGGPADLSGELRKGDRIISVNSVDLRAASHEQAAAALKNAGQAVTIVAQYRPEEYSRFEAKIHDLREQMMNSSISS

| pKd | Binder |
| --- | --- |
| 3.73 | SRPHTNETSL [MCC, P23508] |

The binders below were run against DLG2_2, Q15700 (assay: holdup assay). Settings: plain residues with an end cap or a label only (N-terminal biotin on a linker: ado-ado).
Set-up: key: below the threshold = too weak to quantify, mostly under pKd 3.1 to 4

DLG2_2, Q15700, sequence (Q15700 189-283): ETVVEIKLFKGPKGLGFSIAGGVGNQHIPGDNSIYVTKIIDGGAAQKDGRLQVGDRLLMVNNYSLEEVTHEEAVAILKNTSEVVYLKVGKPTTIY

| pKd | Binder |
| --- | --- |
| below the threshold | SRPHTNETSL [MCC, P23508] |

The binders below were run against DLG5_1, Q8TDM6 (assay: holdup assay). Settings: plain residues with an end cap or a label only (N-terminal biotin on a linker: ado-ado).
Set-up: key: below the threshold = too weak to quantify, mostly under pKd 3.1 to 4

DLG5_1, Q8TDM6, sequence (Q8TDM6 617-713): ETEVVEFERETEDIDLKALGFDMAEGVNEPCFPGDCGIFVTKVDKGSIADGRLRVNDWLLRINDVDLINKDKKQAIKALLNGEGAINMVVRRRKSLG

| pKd | Binder |
| --- | --- |
| below the threshold | SRPHTNETSL [MCC, P23508] |

The binders below were run against GRASP, Q7Z6J2 (assay: holdup assay). Settings: plain residues with an end cap or a label only (N-terminal biotin on a linker: ado-ado).
Set-up: key: below the threshold = too weak to quantify, mostly under pKd 3.1 to 4

GRASP, Q7Z6J2, sequence (Q7Z6J2 96-193): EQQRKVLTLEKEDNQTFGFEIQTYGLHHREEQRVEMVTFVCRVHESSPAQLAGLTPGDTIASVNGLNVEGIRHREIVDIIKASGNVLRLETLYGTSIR

| pKd | Binder |
| --- | --- |
| 3.96 | SRPHTNETSL [MCC, P23508] |

Each binder was assayed against GRIP2_6, Q9C0E4 (assay: holdup assay). Settings: plain residues with an end cap or a label only (N-terminal biotin on a linker: ado-ado).
Set-up: key: below the threshold = too weak to quantify, mostly under pKd 3.1 to 4

GRIP2_6, Q9C0E4, sequence (Q9C0E4 648-740): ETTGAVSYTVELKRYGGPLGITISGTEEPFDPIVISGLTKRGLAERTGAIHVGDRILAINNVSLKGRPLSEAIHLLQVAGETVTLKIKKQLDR

| pKd | Binder |
| --- | --- |
| below the threshold | SRPHTNETSL [MCC, P23508] |

What follows are binders tested against IL16_1, Q14005 (assay: holdup assay). Settings: plain residues with an end cap or a label only (N-terminal biotin on a linker: ado-ado).
Set-up: key: below the threshold = too weak to quantify, mostly under pKd 3.1 to 4

IL16_1, Q14005, sequence (Q14005 210-306): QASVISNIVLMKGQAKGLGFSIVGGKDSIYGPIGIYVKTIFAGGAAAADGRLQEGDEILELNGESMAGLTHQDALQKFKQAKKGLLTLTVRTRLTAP

| pKd | Binder |
| --- | --- |
| below the threshold | SRPHTNETSL [MCC, P23508] |

The binders below were run against IL16_4, Q14005 (assay: holdup assay). Settings: plain residues with an end cap or a label only (N-terminal biotin on a linker: ado-ado).
Set-up: key: below the threshold = too weak to quantify, mostly under pKd 3.1 to 4

IL16_4, Q14005, sequence (Q14005 1229-1329): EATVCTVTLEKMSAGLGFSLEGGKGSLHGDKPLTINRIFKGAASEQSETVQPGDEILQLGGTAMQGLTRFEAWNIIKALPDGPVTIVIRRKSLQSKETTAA

| pKd | Binder |
| --- | --- |
| below the threshold | SRPHTNETSL [MCC, P23508] |

These binders were tested against Inadl_3, Q8NI35 (assay: holdup assay). Settings: plain residues with an end cap or a label only (N-terminal biotin on a linker: ado-ado).
Set-up: key: below the threshold = too weak to quantify, mostly under pKd 3.1 to 4

Inadl_3, Q8NI35, sequence (Q8NI35 359-469): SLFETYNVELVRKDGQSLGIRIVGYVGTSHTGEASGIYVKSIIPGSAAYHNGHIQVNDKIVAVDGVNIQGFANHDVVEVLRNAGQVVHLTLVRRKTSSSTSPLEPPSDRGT

| pKd | Binder |
| --- | --- |
| below the threshold | SRPHTNETSL [MCC, P23508] |

Each binder was assayed against LDB3, O75112 (assay: holdup assay). Settings: plain residues with an end cap or a label only (N-terminal biotin on a linker: ado-ado).
Set-up: key: below the threshold = too weak to quantify, mostly under pKd 3.1 to 4

LDB3, O75112, sequence (O75112 1-94): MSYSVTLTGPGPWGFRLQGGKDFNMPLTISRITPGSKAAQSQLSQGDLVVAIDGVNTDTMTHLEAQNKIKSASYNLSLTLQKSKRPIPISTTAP

| pKd | Binder |
| --- | --- |
| below the threshold | SRPHTNETSL [MCC, P23508] |

What follows are binders tested against LIMK2, P53671 (assay: holdup assay). Settings: plain residues with an end cap or a label only (N-terminal biotin on a linker: ado-ado).
Set-up: key: below the threshold = too weak to quantify, mostly under pKd 3.1 to 4

LIMK2, P53671, sequence (P53671 143-248): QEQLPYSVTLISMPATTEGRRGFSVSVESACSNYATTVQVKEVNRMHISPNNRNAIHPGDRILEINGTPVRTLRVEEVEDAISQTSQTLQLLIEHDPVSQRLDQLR

| pKd | Binder |
| --- | --- |
| below the threshold | SRPHTNETSL [MCC, P23508] |

The binders below were run against LNX1_1, Q8TBB1 (assay: holdup assay). Settings: plain residues with an end cap or a label only (N-terminal biotin on a linker: ado-ado).
Set-up: key: below the threshold = too weak to quantify, mostly under pKd 3.1 to 4

LNX1_1, Q8TBB1, sequence (Q8TBB1 261-371): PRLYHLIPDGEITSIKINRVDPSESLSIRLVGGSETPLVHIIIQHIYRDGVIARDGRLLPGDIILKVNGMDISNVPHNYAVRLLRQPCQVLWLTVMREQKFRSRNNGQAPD

| pKd | Binder |
| --- | --- |
| below the threshold | SRPHTNETSL [MCC, P23508] |

What follows are binders tested against T3, LRRC7, Q96NW7 (assay: holdup assay). Settings: plain residues with an end cap or a label only (N-terminal biotin on a linker: ado-ado).
Set-up: key: below the threshold = too weak to quantify, mostly under pKd 3.1 to 4

| pKd | Binder |
| --- | --- |
| below the threshold | SRPHTNETSL [MCC, P23508] |

These binders were tested against MAGI2_3, Q86UL8 (assay: holdup assay). Settings: plain residues with an end cap or a label only (N-terminal biotin on a linker: ado-ado).
Set-up: key: below the threshold = too weak to quantify, mostly under pKd 3.1 to 4

MAGI2_3, Q86UL8, sequence (Q86UL8 600-682): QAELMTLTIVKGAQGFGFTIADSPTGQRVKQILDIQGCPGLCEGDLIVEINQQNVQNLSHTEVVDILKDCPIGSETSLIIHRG

| pKd | Binder |
| --- | --- |
| below the threshold | SRPHTNETSL [MCC, P23508] |

These binders were tested against T4, MPP6, Q9NZW5 (assay: holdup assay). Settings: plain residues with an end cap or a label only (N-terminal biotin on a linker: ado-ado).
Set-up: key: below the threshold = too weak to quantify, mostly under pKd 3.1 to 4

| pKd | Binder |
| --- | --- |
| below the threshold | SRPHTNETSL [MCC, P23508] |

The binders below were run against T5, NHERF3_1, Q5T2W1 (assay: holdup assay). Settings: plain residues with an end cap or a label only (N-terminal biotin on a linker: ado-ado).
Set-up: key: below the threshold = too weak to quantify, mostly under pKd 3.1 to 4

| pKd | Binder |
| --- | --- |
| 5.29 | SRPHTNETSL [MCC, P23508] |

The binders below were run against T6, NHERF3_3, Q5T2W1 (assay: holdup assay). Settings: plain residues with an end cap or a label only (N-terminal biotin on a linker: ado-ado).
Set-up: key: below the threshold = too weak to quantify, mostly under pKd 3.1 to 4

| pKd | Binder |
| --- | --- |
| below the threshold | SRPHTNETSL [MCC, P23508] |

These binders were tested against NHERF4_4, Q86UT5 (assay: holdup assay). Settings: plain residues with an end cap or a label only (N-terminal biotin on a linker: ado-ado).
Set-up: key: below the threshold = too weak to quantify, mostly under pKd 3.1 to 4

NHERF4_4, Q86UT5, sequence (Q86UT5 464-550): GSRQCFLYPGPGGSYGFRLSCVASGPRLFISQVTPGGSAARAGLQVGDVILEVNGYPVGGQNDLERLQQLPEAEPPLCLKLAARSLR

| pKd | Binder |
| --- | --- |
| below the threshold | SRPHTNETSL [MCC, P23508] |

The binders below were run against T7, PARD3B_1, Q8TEW8 (assay: holdup assay). Settings: plain residues with an end cap or a label only (N-terminal biotin on a linker: ado-ado).
Set-up: key: below the threshold = too weak to quantify, mostly under pKd 3.1 to 4

| pKd | Binder |
| --- | --- |
| 3.7 | SRPHTNETSL [MCC, P23508] |

Each binder was assayed against PICK1, Q9NRD5 (assay: holdup assay). Settings: plain residues with an end cap or a label only (N-terminal biotin on a linker: ado-ado).
Set-up: key: below the threshold = too weak to quantify, mostly under pKd 3.1 to 4

PICK1, Q9NRD5, sequence (Q9NRD5 17-115): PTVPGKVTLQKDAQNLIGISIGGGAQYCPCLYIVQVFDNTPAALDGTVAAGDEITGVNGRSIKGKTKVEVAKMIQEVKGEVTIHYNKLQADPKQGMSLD

| pKd | Binder |
| --- | --- |
| below the threshold | SRPHTNETSL [MCC, P23508] |

What follows are binders tested against PTPN3, P26045 (assay: holdup assay). Settings: plain residues with an end cap or a label only (N-terminal biotin on a linker: ado-ado).
Set-up: key: below the threshold = too weak to quantify, mostly under pKd 3.1 to 4

PTPN3, P26045, sequence (P26045 505-587): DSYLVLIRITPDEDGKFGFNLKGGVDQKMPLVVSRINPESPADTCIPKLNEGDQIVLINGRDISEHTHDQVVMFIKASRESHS

| pKd | Binder |
| --- | --- |
| 4.9 | SRPHTNETSL [MCC, P23508] |

These binders were tested against SCRIB_1, Q14160 (assay: holdup assay). Settings: plain residues with an end cap or a label only (N-terminal biotin on a linker: ado-ado).
Set-up: key: below the threshold = too weak to quantify, mostly under pKd 3.1 to 4

SCRIB_1, Q14160, sequence (Q14160 718-814): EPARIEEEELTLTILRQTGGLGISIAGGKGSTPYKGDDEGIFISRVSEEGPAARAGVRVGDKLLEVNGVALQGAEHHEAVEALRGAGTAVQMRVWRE

| pKd | Binder |
| --- | --- |
| 5.26 | SRPHTNETSL [MCC, P23508] |

Each binder was assayed against SCRIB_3, Q14160 (assay: holdup assay). Settings: plain residues with an end cap or a label only (N-terminal biotin on a linker: ado-ado).
Set-up: key: below the threshold = too weak to quantify, mostly under pKd 3.1 to 4

SCRIB_3, Q14160, sequence (Q14160 999-1103): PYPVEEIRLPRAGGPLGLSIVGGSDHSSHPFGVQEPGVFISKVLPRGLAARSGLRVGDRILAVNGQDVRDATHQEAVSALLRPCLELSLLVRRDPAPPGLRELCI

| pKd | Binder |
| --- | --- |
| 5.13 | SRPHTNETSL [MCC, P23508] |

What follows are binders tested against T8, SNTG1, Q9NSN8 (assay: holdup assay). Settings: plain residues with an end cap or a label only (N-terminal biotin on a linker: ado-ado).
Set-up: key: below the threshold = too weak to quantify, mostly under pKd 3.1 to 4

| pKd | Binder |
| --- | --- |
| 3.93 | SRPHTNETSL [MCC, P23508] |

What follows are binders tested against T9, SNTG2, Q9NY99 (assay: holdup assay). Settings: plain residues with an end cap or a label only (N-terminal biotin on a linker: ado-ado).
Set-up: key: below the threshold = too weak to quantify, mostly under pKd 3.1 to 4

| pKd | Binder |
| --- | --- |
| 4.66 | SRPHTNETSL [MCC, P23508] |

Each binder was assayed against TJP1_3, Q07157 (assay: holdup assay). Settings: plain residues with an end cap or a label only (N-terminal biotin on a linker: ado-ado).
Set-up: key: below the threshold = too weak to quantify, mostly under pKd 3.1 to 4

TJP1_3, Q07157, sequence (Q07157 416-512): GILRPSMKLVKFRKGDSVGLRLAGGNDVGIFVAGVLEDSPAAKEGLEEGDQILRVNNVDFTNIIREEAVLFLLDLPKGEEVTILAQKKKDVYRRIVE

| pKd | Binder |
| --- | --- |
| below the threshold | SRPHTNETSL [MCC, P23508] |
